Source: the FLAb antibody collection (doi:10.7554/elife.23156)

B1: scFv; the commonest letter at each place (parent)
chain 1: EVKLDETGGGLVQPGRPMKLSCVASGFTFSDYWMNWVRQSPEKGLEWVAQIRNKPYNYETYYSDSVKGRFTISRDDSKSSVYLQMNNLRVEDMGIYYCTGSYYGMDYWGQGTSVTVS
chain 2: DVVMTQTPLSLPVSLGDQASISCRSSQSLVHSNGNTYLRWYLQKPGQSPKVLIYKVSNRFSGVPDRFSGSGSGTDFTLKISRVEAEDLGVYFCSQSTHVPWTFGGGTKLEIK

Legend:
fluorescein = variants of: B1; assay: Kd (Tite-Seq); details: with fluorescein; format: scFv 4-4-20, heavy + light
[1] = variants of: B1; assay: yeast surface expression (ratio to wild type); higher = more expressed; details: format: scFv 4-4-20, heavy + light

Row | Variant | Kd (fluorescein) [µM] | yeast surface expression [1]
1 | chain 1 EVKLDETGGGLVQPGRPMKLSCVASGFTFSDYWMNWVRQSPEKGLEWVAQIRNKPYNYETYYSDSVKGRFTISRDDSKSSVYLQMNNLRVEDMGIYYCTGSYYGMWYWKQGTSVTVS chain 2 DVVMTQTPLSLPVSLGDQASISCRSSQSLVHSNGNTYLRWYLQKPGQSPKVLIYKVSNRFSGVPDRFSGSGSGTDFTLKISRVEAEDLGVYFCSQSTHVPWTFGGGTKLEIK [chain 1 D106W G109K] | ≥ 10 | 0.167
2 | chain 1 EVKLDETGGGLVQPGRPMKLSCVASGFTFSDYWMNWVRQSPEKGLEWVAQIRNKPYNYETYYSDSVKGRFTISRDDSKSSVYLQMNNLRVEDMGIYYCTGSYYGMWYWDQGTSVTVS chain 2 DVVMTQTPLSLPVSLGDQASISCRSSQSLVHSNGNTYLRWYLQKPGQSPKVLIYKVSNRFSGVPDRFSGSGSGTDFTLKISRVEAEDLGVYFCSQSTHVPWTFGGGTKLEIK [chain 1 D106W G109D] | ≥ 10 | 0.186
3 | chain 1 EVKLDETGGGLVQPGRPMKLSCVASGFTFSDYWMNWVRQSPEKGLEWVAQIRNKPYNYETYYSDSVKGRFTISRDDSKSSVYLQMNNLRVEDMGIYYCTGSYYGMWYWVQGTSVTVS chain 2 DVVMTQTPLSLPVSLGDQASISCRSSQSLVHSNGNTYLRWYLQKPGQSPKVLIYKVSNRFSGVPDRFSGSGSGTDFTLKISRVEAEDLGVYFCSQSTHVPWTFGGGTKLEIK [chain 1 D106W G109V] | ≥ 10 | 0.0997
4 | chain 1 EVKLDETGGGLVQPGRPMKLSCVASGFTFSDYWMNWVRQSPEKGLEWVAQIRNKPYNYETYYSDSVKGRFTISRDDSKSSVYLQMNNLRVEDMGIYYCTGSYYGMTVWGQGTSVTVS chain 2 DVVMTQTPLSLPVSLGDQASISCRSSQSLVHSNGNTYLRWYLQKPGQSPKVLIYKVSNRFSGVPDRFSGSGSGTDFTLKISRVEAEDLGVYFCSQSTHVPWTFGGGTKLEIK [chain 1 D106T Y107V] | 5.37 | 0.829
5 | chain 1 EVKLDETGGGLVQPGRPMKLSCVASGFTFSDYWMNWVRQSPEKGLEWVAQIRNKPYNYETYYSDSVKGRFTISRDDSKSSVYLQMNNLRVEDMGIYYCTGSYYGMWYWGQGTSVTVS chain 2 DVVMTQTPLSLPVSLGDQASISCRSSQSLVHSNGNTYLRWYLQKPGQSPKVLIYKVSNRFSGVPDRFSGSGSGTDFTLKISRVEAEDLGVYFCSQSTHVPWTFGGGTKLEIK [chain 1 D106W] | ≥ 10 | 0.339
6 | chain 1 EVKLDETGGGLVQPGRPMKLSCVASGFTFSDYWMNWVRQSPEKGLEWVAQIRNKPYNYETYYSDSVKGRFTISRDDSKSSVYLQMNNLRVEDMGIYYCTGSYYGMVYWGQGTSVTVS chain 2 DVVMTQTPLSLPVSLGDQASISCRSSQSLVHSNGNTYLRWYLQKPGQSPKVLIYKVSNRFSGVPDRFSGSGSGTDFTLKISRVEAEDLGVYFCSQSTHVPWTFGGGTKLEIK [chain 1 D106V] | ≥ 10 | 0.734
7 | chain 1 EVKLDETGGGLVQPGRPMKLSCVASGFTFSDYWMNWVRQSPEKGLEWVAQIRNKPYNYETYYSDSVKGRFTISRDDSKSSVYLQMNNLRVEDMGIYYCTGSYYGMVYNGQGTSVTVS chain 2 DVVMTQTPLSLPVSLGDQASISCRSSQSLVHSNGNTYLRWYLQKPGQSPKVLIYKVSNRFSGVPDRFSGSGSGTDFTLKISRVEAEDLGVYFCSQSTHVPWTFGGGTKLEIK [chain 1 D106V W108N] | ≥ 10 | 0.371

Continued, in another order:

Row | Kd (fluorescein) [µM] | Variant | yeast surface expression [1]
8 | ≥ 10 | chain 1 EVKLDETGGGLVQPGRPMKLSCVASGFTFSDYWMNWVRQSPEKGLEWVAQIRNKPYNYETYYSDSVKGRFTISRDDSKSSVYLQMNNLRVEDMGIYYCTGSYYGMWYWAQGTSVTVS chain 2 DVVMTQTPLSLPVSLGDQASISCRSSQSLVHSNGNTYLRWYLQKPGQSPKVLIYKVSNRFSGVPDRFSGSGSGTDFTLKISRVEAEDLGVYFCSQSTHVPWTFGGGTKLEIK [chain 1 D106W G109A] | 0.168
9 | ≥ 10 | chain 1 EVKLDETGGGLVQPGRPMKLSCVASGFTFSDYWMNWVRQSPEKGLEWVAQIRNKPYNYETYYSDSVKGRFTISRDDSKSSVYLQMNNLRVEDMGIYYCTGSYYGMTYWMQGTSVTVS chain 2 DVVMTQTPLSLPVSLGDQASISCRSSQSLVHSNGNTYLRWYLQKPGQSPKVLIYKVSNRFSGVPDRFSGSGSGTDFTLKISRVEAEDLGVYFCSQSTHVPWTFGGGTKLEIK [chain 1 D106T G109M] | 0.285
10 | ≥ 10 | chain 1 EVKLDETGGGLVQPGRPMKLSCVASGFTFSDYWMNWVRQSPEKGLEWVAQIRNKPYNYETYYSDSVKGRFTISRDDSKSSVYLQMNNLRVEDMGIYYCTGSYYGMTYWRQGTSVTVS chain 2 DVVMTQTPLSLPVSLGDQASISCRSSQSLVHSNGNTYLRWYLQKPGQSPKVLIYKVSNRFSGVPDRFSGSGSGTDFTLKISRVEAEDLGVYFCSQSTHVPWTFGGGTKLEIK [chain 1 D106T G109R] | 0.26
11 | ≥ 10 | chain 1 EVKLDETGGGLVQPGRPMKLSCVASGFTFSDYWMNWVRQSPEKGLEWVAQIRNKPYNYETYYSDSVKGRFTISRDDSKSSVYLQMNNLRVEDMGIYYCTGSYYGMWYFGQGTSVTVS chain 2 DVVMTQTPLSLPVSLGDQASISCRSSQSLVHSNGNTYLRWYLQKPGQSPKVLIYKVSNRFSGVPDRFSGSGSGTDFTLKISRVEAEDLGVYFCSQSTHVPWTFGGGTKLEIK [chain 1 D106W W108F] | 0.225
12 | ≥ 10 | chain 1 EVKLDETGGGLVQPGRPMKLSCVASGFTFSDYWMNWVRQSPEKGLEWVAQIRNKPYNYETYYSDSVKGRFTISRDDSKSSVYLQMNNLRVEDMGIYYCTGSYYGMTYQGQGTSVTVS chain 2 DVVMTQTPLSLPVSLGDQASISCRSSQSLVHSNGNTYLRWYLQKPGQSPKVLIYKVSNRFSGVPDRFSGSGSGTDFTLKISRVEAEDLGVYFCSQSTHVPWTFGGGTKLEIK [chain 1 D106T W108Q] | 0.5
